In the supplement of paper PMC10126150:
± gives the standard deviation of the averaged measurements.

tested on: ATP; assay: switch fluorescence ratio, 500 uM ATP over buffer (Cy3 cluster intensity, sum of 5 cycles each) (fold (ratio)); higher = stronger signal-on switching upon ATP binding; sequences stand for … in TCGTCGGCAGCGTCAGATGTGTATAAGAGACAGTTTTTTTTTTTTTTTTTTTTTTTTT…TC; conditions: aptamer strand: ATP DNA aptamer (quencher-CACCTGGGGGAGTATTGCGGAGGAAGG + anchor), 100 nM annealed; ATP concentration: 500 uM
Procedure, shortened: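 The quencher-labelled ATP aptamer, at 100 nM, was annealed to Cy3-labelled switching-strand clusters on a modified Illumina MiSeq flow-cell. The clusters were imaged in selection buffer, then after 15 min with 500 uM ATP at 22 °C, and this buffer/ATP cycle ran five times with NaOH stripping and re-annealing between runs. Per-cluster fluorescence ratios, summed target-cycle over summed buffer-cycle Cy3 intensity, were averaged per switch-domain sequence. Clusters outside 100-1000 RFU were excluded.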
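Note: ATP exposure 15 min at 22 °C before imaging.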

Sequence	switch fluorescence ratio
GCCTATGCGG	1.01 ± 0.0033
AAGTCTTAAG	1.04 ± 0.013
AAGGGGGCTA	0.974 ± 0.027
TGTGGCTCTG	0.9571 ± 0.0087
ATTACCTGTT	1.03 ± 0.047
CATTGATGTG	1 ± 0.011
TTCTGGGGAT	1.009 ± 0.0014
AATTTAGAGT	1 ± 0.012
TTGGCGTCAA	1.36 ± 0.51
TTGTGGTTTC	1.01 ± 0.017
GTATGTTGGG	1.08 ± 0.045
CTTGTCTGAG	0.9818 ± 0.0096
GGGACATTGT	0.963 ± 0.03
ACAGGAGGAG	0.9859 ± 3.2e-05
GGCCGAGGAG	0.998 ± 0.012
AGCTACGTCG	0.942 ± 0.034
AATGAACATG	0.978 ± 0.037
GGGAGGGGTA	1 ± 0.029
CGGGTATGCT	0.959 ± 0.025
GGCATCATGT	1.012 ± 0.0039
GAGAGTTATT	0.988 ± 0.04
AGCGGCATGT	0.978 ± 0.077
GACACAGGGG	1.06 ± 0.047
AATGATGCCT	0.995 ± 0.036
TGATGGGCGG	0.9957 ± 0.008

Sequence	switch fluorescence ratio
TAATGGGTGA	1.03 ± 0.016
TGGGAGTTGG	1.03 ± 0.012
GGCGCGGCGG	1.02 ± 0.068
AATTGGGCAG	0.9971 ± 0.0038
TGTGTCTTTT	1.01 ± 0.047
AAGAAGGGAT	0.953 ± 0.016
GATGCTCGAA	0.989 ± 0.025
TTGTTTAATT	0.979 ± 0.022
GGGACGAATC	1.006 ± 0.0041
AGTAGCATTC	1.724 ± 0.013
TACCTAATTA	1.04 ± 0.046
TTACACGTTC	1.03 ± 0.018
TAATTGGTGC	1.049 ± 0.0075
TTCCAGGCGT	1.23 ± 0.055
TAGGGGAGAC	1.06 ± 0.047
TCTAAAGATT	1.011 ± 0.0027
TTGGATGTGA	0.9622 ± 0.0052
ATGGTGTCTT	0.961 ± 0.023
GTGGTAGCAC	1.01 ± 0.025
TAAGCATGGA	1.04 ± 0.013
CGGATCCTTC	1.02 ± 0.037
TATAAAATCT	1.02 ± 0.082
GGAGTTTGAG	1 ± 0.0095
CGTCCTGGCT	1.02 ± 0.07
AAAAATTTTT	0.995 ± 0.052

Sequence	switch fluorescence ratio
GGTCATAGAC	0.991 ± 0.026
AATATCGCGG	1.0264 ± 0.001
TCCTACGGGG	1.14 ± 0.18
AATCGTTAAA	0.9812 ± 0.0069
GGGAAATATG	1.01 ± 0.012
ATTTTGCGTT	0.998 ± 0.031
TAGTAGATTA	0.982 ± 0.012
AGAACGTTCT	0.9851 ± 0.0059
CTCGCTGCGG	1.029 ± 0.0073
TTTGAGGTGG	1.03 ± 0.043
GGAGCATTTT	1.78 ± 0.88
AAGTTACTAG	1.07 ± 0.014
TCTATTAAGG	1 ± 0.013
TCCATAGTGA	1.26 ± 0.085
GATTAAAAAG	0.99 ± 0.062
CAACGAGTGG	1.012 ± 0.0028
TGGGCTGGTA	0.972 ± 0.025
GTGGGCGTTT	1 ± 0.017
GACACGTGGG	1.02 ± 0.055
CGGGTTTGGG	0.983 ± 0.016
GATACTGTGA	0.995 ± 0.023
CCTTGGTATT	0.998 ± 0.026
TGTTGAAAAG	0.979 ± 0.01
GAGGGCTCTT	1.05 ± 0.029
TTTATAAGAT	1.01 ± 0.012

Sequence	switch fluorescence ratio
AATGTTCAAA	0.995 ± 0.023
CGGGACAAGT	0.982 ± 0.041
ACACGTGCTA	1.01 ± 0.024
GCGTTTTGTC	0.96229 ± 0.00085
CTGGAAGTTT	0.952 ± 0.044
GTGGTCGGGA	1.09 ± 0.15
TAGGGATAGC	0.985 ± 0.013
TCGGATTCGA	1.015 ± 0.0092
TTGGGGAGTA	0.9929 ± 0.0089
AGCTGTGACC	1 ± 0.012
ACATCAGCGG	0.958 ± 0.031
GGGGACTACT	1 ± 0.025
TACACCGCGG	1.02 ± 0.027
TTTTAGTGGT	0.992 ± 0.014
ATTACTATGG	1.02 ± 0.02
CGAACGTCAG	1.04 ± 0.012
GGGGGTCAAT	1.02 ± 0.04
TACAGCTGGG	1.01 ± 0.016
TTTGCTAG	1.013 ± 0.0095
GGATTGTCTT	1 ± 0.0014
GAGGCCTTGG	0.983 ± 0.04
CGCTTATTAA	1.072 ± 0.0033
AAGGCTAGGA	1 ± 0.036
TCGATTTGGC	1 ± 0.045
TATATGAGAT	1.01 ± 0.017
